Results: article PMC4455164, “Facilitated Tau Degradation by USP14 Aptamers via Enhanced Proteasome Activity”

B1: USP14-1 mutant (structured_RNA)
RNA: GGGUUCACUGCAGACUUGACGAAGCUUGCAGUGAUGUGCUUCUAAAAAACAACCUAAAAAAAUUGCCAAUGGAUCCACAUCUACGAAUUC
B2: USP14-3 mutant (structured_RNA)
RNA: GGGUUCACUGCAGACUUGACGAAGCUUAAAAAAAAGGCUCGUUUGGCCUGCCGAAAAAAGGCCGGGAAAUGGAUCCACAUCUACGAAUUC
B3: USP14-2 mutant (structured_RNA)
RNA: GGGUUCACUGCAGACUUGACGAAGCUUCUGAAAAAAAGUUAGUUUCGCUGGUUUAAAAUCGGUGCGGAAUGGAUCCACAUCUACGAAUUC

The binders below were run against USP14 (GST-USP14) (UniProt P54578 1-494) (assay: GST pull-down with RT-PCR; 2 pmol GST-protein on GST sepharose 4B resin + 20 pmol RNA; pull-down buffer not restated; SELEX binding buffer 30 mM Tris-HCl pH 7.5, 150 mM NaCl, 1.5 mM MgCl2, 2 mM DTT, 1% BSA, RT). Settings: protein: recombinant; tags: N-terminal GST (pGEX-2T).
Sequence of USP14 (GST-USP14) (P54578 whole entry): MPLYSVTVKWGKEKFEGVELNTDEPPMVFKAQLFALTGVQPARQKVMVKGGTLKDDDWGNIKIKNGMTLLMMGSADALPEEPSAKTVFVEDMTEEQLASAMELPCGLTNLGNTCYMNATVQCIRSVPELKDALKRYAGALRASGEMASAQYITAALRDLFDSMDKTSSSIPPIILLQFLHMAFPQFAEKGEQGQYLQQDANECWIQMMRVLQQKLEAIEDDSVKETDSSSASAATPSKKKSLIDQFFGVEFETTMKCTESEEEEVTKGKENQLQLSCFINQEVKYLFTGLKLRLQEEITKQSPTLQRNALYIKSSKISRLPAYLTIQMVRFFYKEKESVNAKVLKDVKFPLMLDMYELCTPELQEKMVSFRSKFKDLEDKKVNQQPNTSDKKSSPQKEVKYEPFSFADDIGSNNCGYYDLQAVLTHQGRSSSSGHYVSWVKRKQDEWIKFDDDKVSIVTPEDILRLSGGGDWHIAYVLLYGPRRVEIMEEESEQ

| Binder | binding result |
| --- | --- |
| UUUGUCUAGCGCGUAGUGGGGAGAUGUUGUGAUACUGGGG (ssRNA) [control RNA aptamer] | no binding |
| B1 | no binding |
| B2 | no binding |
| B3 | no binding |
